Patent publication US20150125516, “TRANSFERRIN RECEPTOR APTAMERS AND APTAMER-TARGETED DELIVERY” (ALBERT EINSTEIN COLLEGE OF MEDICINE OF YESHIVA UNIVERSITY, published 2015)

Columns and labels:
[1] = target: transferrin receptor (TfR, CD71), native on human cells (Homo sapiens, UniProt P02786 P02786:1-760); test: flow; apparent, Jurkat cells, RPMI 10% FBS, tRNA and ssDNA, 37 C 1 h; no staining of ATP-arrested cells; conditions: chain copies: 2 inferred; label: 32P (filter), AF488 or Atto647N (cells); stem with 12-nt asymmetric bulge, C-rich bulge, GNRA tetraloop
Sequence of transferrin receptor (TfR, CD71), native on human cells (P02786 whole entry, one chain of several): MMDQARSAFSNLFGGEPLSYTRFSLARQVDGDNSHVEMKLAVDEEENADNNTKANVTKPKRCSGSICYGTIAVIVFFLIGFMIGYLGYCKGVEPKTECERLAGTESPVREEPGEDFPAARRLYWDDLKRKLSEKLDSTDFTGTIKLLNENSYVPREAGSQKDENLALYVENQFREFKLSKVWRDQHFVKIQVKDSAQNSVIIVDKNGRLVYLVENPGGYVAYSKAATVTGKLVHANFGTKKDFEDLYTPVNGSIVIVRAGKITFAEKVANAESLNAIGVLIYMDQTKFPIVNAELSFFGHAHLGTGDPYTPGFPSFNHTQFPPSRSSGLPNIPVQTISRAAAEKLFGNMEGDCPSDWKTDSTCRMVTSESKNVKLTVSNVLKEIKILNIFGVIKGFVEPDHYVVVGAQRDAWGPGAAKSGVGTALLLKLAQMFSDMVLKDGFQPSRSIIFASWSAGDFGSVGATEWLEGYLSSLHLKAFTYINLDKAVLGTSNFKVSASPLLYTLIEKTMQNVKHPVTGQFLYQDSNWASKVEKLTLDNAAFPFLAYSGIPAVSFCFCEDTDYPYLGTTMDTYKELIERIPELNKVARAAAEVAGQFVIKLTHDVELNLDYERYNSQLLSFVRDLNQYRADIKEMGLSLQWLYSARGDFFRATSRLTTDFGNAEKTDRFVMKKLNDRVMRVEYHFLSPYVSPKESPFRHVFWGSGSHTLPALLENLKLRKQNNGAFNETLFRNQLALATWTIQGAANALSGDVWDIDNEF
Procedure: Following a 1 hour incubation at 37° C., the cells were washed twice with 1 mL FACS buffer and then resuspended in 500 μL FACS buffer containing 7AAD to exclude dead cells in the analysis. The apparent binding constant was determined from a fit of the mean fluorescence versus the aptamer concentration using the Eq. 1 above.

[2] = target: transferrin receptor (TfR, CD71), recombinant from pAcGP67A-TfR (Homo sapiens, UniProt P02786 P02786:121-760); test: filter; DPBS with Mg2+ and Ca2+, room temperature, 30 min; conditions: tags: His-tag; expressed in Sf9 insect cells, plasmid pAcGP67A-TfR (Addgene); chain copies: 2 inferred; label: 32P (filter), AF488 or Atto647N (cells); stem with 12-nt asymmetric bulge, C-rich bulge, GNRA tetraloop
Sequence of transferrin receptor (TfR, CD71), recombinant from pAcGP67A-TfR (P02786 121-760, one chain of several): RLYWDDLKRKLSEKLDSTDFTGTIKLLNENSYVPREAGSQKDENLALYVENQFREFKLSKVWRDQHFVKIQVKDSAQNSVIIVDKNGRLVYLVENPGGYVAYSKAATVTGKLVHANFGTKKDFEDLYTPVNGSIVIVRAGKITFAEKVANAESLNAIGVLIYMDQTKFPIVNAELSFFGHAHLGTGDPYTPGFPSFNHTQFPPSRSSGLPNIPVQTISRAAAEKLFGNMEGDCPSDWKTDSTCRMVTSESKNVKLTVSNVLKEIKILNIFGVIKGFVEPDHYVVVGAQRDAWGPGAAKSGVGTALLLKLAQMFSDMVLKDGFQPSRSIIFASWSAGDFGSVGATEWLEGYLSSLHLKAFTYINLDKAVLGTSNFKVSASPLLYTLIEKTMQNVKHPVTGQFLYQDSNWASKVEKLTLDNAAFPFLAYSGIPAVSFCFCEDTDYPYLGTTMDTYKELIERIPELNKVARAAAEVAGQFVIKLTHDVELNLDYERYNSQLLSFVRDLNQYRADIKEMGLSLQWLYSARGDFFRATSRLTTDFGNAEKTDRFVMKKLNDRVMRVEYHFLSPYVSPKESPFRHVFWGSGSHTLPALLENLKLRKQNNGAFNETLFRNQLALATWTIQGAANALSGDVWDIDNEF

GGGGGAUCAAUCCAAGGGACCCGGAAACGCUCCCUUACACCCC (ssRNA, 2'-F pyrimidines; 3' idT; 5' thiol C6) [c2.min]
Kd [1]: 104 nM
Kd [2]: 102 nM
